These results are taken from patent US20230212182A1 (DUALITY BIOLOGICS SUZHOU, published 2023).

T1: Trop2 (UniProt P09758 27-323, limits assumed)
T1 sequence (looked up): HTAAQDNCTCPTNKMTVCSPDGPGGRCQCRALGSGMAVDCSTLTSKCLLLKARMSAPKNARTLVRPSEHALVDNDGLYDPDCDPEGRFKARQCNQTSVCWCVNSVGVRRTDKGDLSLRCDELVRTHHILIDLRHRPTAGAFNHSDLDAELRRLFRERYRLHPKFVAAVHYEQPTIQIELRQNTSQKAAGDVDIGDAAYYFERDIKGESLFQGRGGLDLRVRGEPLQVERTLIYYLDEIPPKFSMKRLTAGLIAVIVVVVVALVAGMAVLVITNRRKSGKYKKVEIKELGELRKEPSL

B1: Reference ADC-2 (Sacituzumab-Deruxtecan) (antibody, human IgG1, kappa, V domains shown)
VH: QVQLQQSGSELKKPGASVKVSCKASGYTFTNYGMNWVKQAPGQGLKWMGWINTYTGEPTYTDDFKGRFAFSLDTSVSTAYLQISSLKADDTAVYFCARGGFGSSYWYFDVWGQGSLVTVSS
VL: DIQLTQSPSSLSASVGDRVSITCKASQDVSIAVAWYQQKPGKAPKLLIYSASYRYTGVPDRFSGSGSGTDFTLTISSLQPEDFAVYYCQQHYITPLTFGAGTKVEIKR
modifications: Deruxtecan linker-drug conjugated after TCEP reduction of disulfide bonds (cysteine positions not stated); mean n=4.18 per antibody
B2: ADC-III-28 (antibody, human IgG1, kappa, V domains shown)
VH: QVQLQQSGSELKKPGASVKVSCKASGYTFTNYGMNWVKQAPGQGLKWMGWINTYTGEPTYTDDFKGRFAFSLDTSVSTAYLQISSLKADDTAVYFCARGGFGSSYWYFDVWGQGSLVTVSS
VL: DIQLTQSPSSLSASVGDRVSITCKASQDVSIAVAWYQQKPGKAPKLLIYSASYRYTGVPDRFSGSGSGTDFTLTISSLQPEDFAVYYCQQHYITPLTFGAGTKVEIKR
modifications: linker-drug L-III-30 conjugated after TCEP reduction of disulfide bonds (cysteine positions not stated); mean n=3.67 per antibody
B3: ADC-II-11-a (antibody, human IgG1, kappa, V domains shown)
VH: QVQLQQSGSELKKPGASVKVSCKASGYTFTNYGMNWVKQAPGQGLKWMGWINTYTGEPTYTDDFKGRFAFSLDTSVSTAYLQISSLKADDTAVYFCARGGFGSSYWYFDVWGQGSLVTVSS
VL: DIQLTQSPSSLSASVGDRVSITCKASQDVSIAVAWYQQKPGKAPKLLIYSASYRYTGVPDRFSGSGSGTDFTLTISSLQPEDFAVYYCQQHYITPLTFGAGTKVEIKR
modifications: linker-drug L-II-3 conjugated after TCEP reduction of disulfide bonds (cysteine positions not stated); mean n=3.73 per antibody

In the assay the target is T1, Trop2. The assay can be described thus: cell-based or functional assay.
As to B1, the “IC50 (nM), inhibition of in vitro proliferation of Colo205 cells (CTG, 6 days)” value came out at 152 nM and the “IC50 (nM), inhibition of in vitro proliferation of SK-OV-3 cells (CTG, 6 days)” value was determined as 501 nM.
The matching figures for B2: 77.6 nM and 394 nM.
Consider B3, for which the “IC50 (nM), inhibition of in vitro proliferation of Colo205 cells (CTG, 6 days)” value is 121 nM and the “IC50 (nM), inhibition of in vitro proliferation of SK-OV-3 cells (CTG, 6 days)” value stood at 448 nM.
